Measured values: PMC4354037

Biological target: T1, BSU Pol I (BSU polymerase) (Bacillus subtilis) (UniProt O34996)
T1 sequence: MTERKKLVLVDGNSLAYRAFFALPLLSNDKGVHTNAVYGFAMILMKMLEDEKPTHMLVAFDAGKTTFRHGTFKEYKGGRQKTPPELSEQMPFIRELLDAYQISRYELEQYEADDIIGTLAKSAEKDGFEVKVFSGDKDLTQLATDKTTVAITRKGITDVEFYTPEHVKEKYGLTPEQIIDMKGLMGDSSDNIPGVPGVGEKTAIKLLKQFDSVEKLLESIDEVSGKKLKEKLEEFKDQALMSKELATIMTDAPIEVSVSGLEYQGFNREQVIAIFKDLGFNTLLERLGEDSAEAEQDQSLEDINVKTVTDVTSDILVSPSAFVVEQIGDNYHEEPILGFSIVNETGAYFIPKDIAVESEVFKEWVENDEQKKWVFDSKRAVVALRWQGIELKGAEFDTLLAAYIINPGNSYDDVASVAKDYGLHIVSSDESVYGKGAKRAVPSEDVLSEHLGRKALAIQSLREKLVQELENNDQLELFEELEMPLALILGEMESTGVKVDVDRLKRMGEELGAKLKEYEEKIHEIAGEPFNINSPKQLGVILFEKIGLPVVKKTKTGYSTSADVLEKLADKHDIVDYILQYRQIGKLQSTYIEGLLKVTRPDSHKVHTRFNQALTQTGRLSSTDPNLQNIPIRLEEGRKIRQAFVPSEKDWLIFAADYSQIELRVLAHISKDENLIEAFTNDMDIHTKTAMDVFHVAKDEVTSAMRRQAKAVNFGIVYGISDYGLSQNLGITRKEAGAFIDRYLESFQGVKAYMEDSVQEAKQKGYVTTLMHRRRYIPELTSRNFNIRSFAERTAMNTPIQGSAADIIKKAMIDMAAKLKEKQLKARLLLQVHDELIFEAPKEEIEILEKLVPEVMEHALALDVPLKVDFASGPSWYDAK
Assay: stopped-flow fluorescence quenching
Details: 375 mM NaCl, 10 mM MgSO4, fluorescein-modified thymidine in primer, five bases from the incorporation site, Stopped flow: 20 mM ACES pH 7.4, 62.5-325 mM NaCl (Methods; 375 mM in Results), 10 mM MgSO4, 1 uM acetylated BSA, 0.02% Tween-20, 1 mM TCEP, 600 nM enzyme …

“GCTTGCACAGGGCCTCGAC / CGTTAGTAAGGTCGAGGCCCTGTGCAAGC [stopped-flow primer/template duplex]” was tested, and the binding signal (fold signal over mismatch) (correct nucleotide dCTP 100 uM) was 3.5 and the binding signal (reference signal (correct is 3.5-fold)) (mismatch nucleotide dATP) was 1.
